Experimental data: publication PMC9076272 (RSC Advances, 2019)

Target: the molecule itself
Assay: crystal structure

B1: Pseudomonas aeruginosa single-stranded DNA-binding protein (PaSSB) (natural protein, UniProt P40947 1-165, looked up)
chain: MARGVNKVILVGNVGGDPETRYMPNGNAVTNITLATSESWKDKQTGQQQERTEWHRVVFFGRLAEIAGEYLRKGSQVYVEGSLRTRKWQGQDGQDRYTTEIVVDINGNMQLLGGRPSGDDSQRAPREPMQRPQQAPQQQSRPAPQQQPAPQPAQDYDSFDDDIPF
stoichiometry N: 4
